Patent US20020182673A1

What was measured:
[1] = target: recombinant IL-17E (baculovirus, His-tag removed by thrombin) (human); assay: SPR (BIAcore 1000), IL-17E immobilised, IL-17RH1 ECD in solution, 1:1 model
[2] = target: IL-17RH1 (PRO5801) ECD (residues 1-275), baculovirus, His-tag removed (human); assay: SPR (BIAcore 1000), IL-17RH1 ECD immobilised, IL-17E in solution, 1:1 model

Substance | Kd [1] [nM] | koff [1] [s⁻¹] | kon [1] [M⁻¹ s⁻¹] | Kd [2] [nM] | koff [2] [s⁻¹] | kon [2] [M⁻¹ s⁻¹]
IL-17RH1 (PRO5801) ECD (residues 1-275), baculovirus, His-tag removed (receptor) | 1.1 | 0.0007 | 670000 | – | – | –
recombinant IL-17E (baculovirus, His-tag removed by thrombin) (ligand) | – | – | – | 1.4 | 0.00062 | 430000
